Data from patent US20240108766A1 (Bayer, published 2024).
Positions count from the first letter of the chain named. One block for each binder: values may come before it.

Assays:
[1] = molecular target: T1, Cathepsin S (CTSS) on transfected HEK293 cells (human, UniProt P25774 115-331); assay: flow cytometry, live transfected HEK293 cells
T1 construct: whole, on cells; also called CTSS/ZsGreen1

[2] = molecular target: T2, human LRRC15 expressed on cells (human, UniProt Q8TF66 22-581); assay: flow cytometry, transfected HEK293; TPP-12942, first of the three values listed 'respectively'
T2 construct: whole, on cells; On HEK293 cells transfected with LRRC15/ZsGreen1 (Retrogenix), on HT29 cells transfected with human LRRC15, and endogenous on Saos-2; also called LRRC15/ZsGreen1 transfected HEK293 cells; HT29-LRRC15
T2 sequence (looked up): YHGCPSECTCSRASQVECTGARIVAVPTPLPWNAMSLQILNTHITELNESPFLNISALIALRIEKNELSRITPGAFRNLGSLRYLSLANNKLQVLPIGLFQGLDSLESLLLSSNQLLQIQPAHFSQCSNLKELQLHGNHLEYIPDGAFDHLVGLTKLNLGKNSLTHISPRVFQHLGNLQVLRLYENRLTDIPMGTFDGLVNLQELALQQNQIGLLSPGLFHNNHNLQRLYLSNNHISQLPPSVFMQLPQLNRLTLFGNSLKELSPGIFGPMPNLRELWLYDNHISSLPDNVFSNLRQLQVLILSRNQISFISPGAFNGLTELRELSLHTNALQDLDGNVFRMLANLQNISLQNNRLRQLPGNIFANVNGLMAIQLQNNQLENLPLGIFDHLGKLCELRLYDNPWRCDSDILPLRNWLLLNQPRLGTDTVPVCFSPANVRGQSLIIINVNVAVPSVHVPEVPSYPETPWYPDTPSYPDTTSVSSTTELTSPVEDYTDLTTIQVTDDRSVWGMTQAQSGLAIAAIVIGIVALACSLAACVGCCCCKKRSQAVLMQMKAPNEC

[3] = molecular target: T2, human LRRC15 expressed on cells; assay: flow cytometry, transfected HEK293, 0.5 µg/ml
[4] = molecular target: T2, human LRRC15 expressed on cells; assay: flow cytometry, transfected HEK293, 12.5 µg/ml
[5] = molecular target: T2, human LRRC15 expressed on cells; assay: flow cytometry, transfected HEK293
[6] = molecular target: T3, Ephrin type-B receptor 6 (EPHB6) on transfected HEK293 cells (human, UniProt O15197 32-1021); assay: flow cytometry, transfected HEK293, 0.02 µg/ml
T3 construct: whole, on cells; also called EPHB6/ZsGreen1
T3 sequence (looked up): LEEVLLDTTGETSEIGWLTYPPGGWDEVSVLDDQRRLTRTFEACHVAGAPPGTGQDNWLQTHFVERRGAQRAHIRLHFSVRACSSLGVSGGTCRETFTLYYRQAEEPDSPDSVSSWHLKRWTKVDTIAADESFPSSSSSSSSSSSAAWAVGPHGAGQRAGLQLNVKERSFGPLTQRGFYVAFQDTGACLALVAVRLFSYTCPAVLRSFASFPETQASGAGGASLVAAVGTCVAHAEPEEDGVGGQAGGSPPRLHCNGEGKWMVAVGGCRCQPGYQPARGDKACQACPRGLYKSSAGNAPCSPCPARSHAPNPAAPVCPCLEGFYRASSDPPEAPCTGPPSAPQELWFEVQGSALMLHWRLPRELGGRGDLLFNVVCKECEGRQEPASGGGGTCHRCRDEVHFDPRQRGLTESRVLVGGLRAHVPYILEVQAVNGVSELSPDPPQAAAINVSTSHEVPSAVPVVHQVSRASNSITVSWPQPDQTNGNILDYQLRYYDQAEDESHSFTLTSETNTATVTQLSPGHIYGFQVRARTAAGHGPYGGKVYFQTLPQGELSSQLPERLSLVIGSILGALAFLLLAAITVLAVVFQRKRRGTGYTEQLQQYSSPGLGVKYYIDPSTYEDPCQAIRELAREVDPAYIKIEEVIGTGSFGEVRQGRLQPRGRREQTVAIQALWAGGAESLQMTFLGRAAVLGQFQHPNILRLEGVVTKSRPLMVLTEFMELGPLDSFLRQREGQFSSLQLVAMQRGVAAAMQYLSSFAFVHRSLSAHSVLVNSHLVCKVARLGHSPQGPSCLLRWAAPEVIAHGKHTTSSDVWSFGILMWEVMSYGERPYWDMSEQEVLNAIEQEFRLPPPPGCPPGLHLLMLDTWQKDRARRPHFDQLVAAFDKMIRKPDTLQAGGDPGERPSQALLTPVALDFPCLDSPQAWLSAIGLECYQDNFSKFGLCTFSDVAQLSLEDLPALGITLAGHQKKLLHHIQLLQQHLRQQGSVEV

[7] = molecular target: T3, Ephrin type-B receptor 6 (EPHB6) on …; assay: flow cytometry, transfected HEK293, 0.1 µg/ml
[8] = molecular target: T3, Ephrin type-B receptor 6 (EPHB6) on …; assay: flow cytometry, transfected HEK293, 0.5 µg/ml
[9] = molecular target: T3, Ephrin type-B receptor 6 (EPHB6) on …; assay: flow cytometry, transfected HEK293, 62.5 µg/ml
[10] = molecular target: T3, Ephrin type-B receptor 6 (EPHB6) on …; assay: flow cytometry, transfected HEK293, 0.004 µg/ml
[11] = molecular target: T2, human LRRC15 expressed on cells; assay: flow cytometry, transfected HEK293; TPP-17078, second of the three values listed 'respectively'
[12] = molecular target: T3, Ephrin type-B receptor 6 (EPHB6) on …; assay: flow cytometry, transfected HEK293, 0 µg/ml
[13] = molecular target: T3, Ephrin type-B receptor 6 (EPHB6) on …; assay: flow cytometry, transfected HEK293, 12.5 µg/ml
[14] = molecular target: T3, Ephrin type-B receptor 6 (EPHB6) on …; assay: flow cytometry, transfected HEK293, 2.5 µg/ml

T1 sequence (P25774 115-331): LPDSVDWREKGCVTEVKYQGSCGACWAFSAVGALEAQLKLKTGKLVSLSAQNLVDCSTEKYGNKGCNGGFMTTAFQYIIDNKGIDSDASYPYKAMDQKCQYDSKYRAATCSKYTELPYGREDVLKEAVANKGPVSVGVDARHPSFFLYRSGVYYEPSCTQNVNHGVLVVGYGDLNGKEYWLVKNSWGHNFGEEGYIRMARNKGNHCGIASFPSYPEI

- binding result [1]: no binding (tested: up to 62.5 µg/ml)
B1: TPP-14389 (antibody, human IgG1, kappa, V domains shown)
VH: EVQLLESGGGLVQPGGSLRLSCAASGFTFSGYMMSWVRQAPGKGLEWVSGIYPSPGYTYYADSVKGRFTISRDNSKNTLYLQMNSLRAEDTAVYYCAREKASDLFGSYSEALDYWGQGTLVTVSS
VL: DIQMTQSPDSLSASVGDRVTITCRASQDVGSWLAWYQQKPGKAPKLLIFAASSLESGIPSRFSGSGSGTDFTLTISSLQPEDFATYYCQQANGFPLTFGGGTKVEIKR
notes: also called 13612-rec02-hIgG1Kappa

- Median Fluorescence AF647 [6]: 1770
- Median Fluorescence AF647 [7]: 2810
- Median Fluorescence AF647 [3]: 391000
- Median Fluorescence AF647 [8]: 3150
- Median Fluorescence AF647 [9]: 9050
- Median Fluorescence AF647 [10]: 1250
- Median Fluorescence AF647 [12]: 628
- Median Fluorescence AF647 [4]: 736000
- Median Fluorescence AF647 [13]: 5390
- Median Fluorescence AF647 [14]: 4150
B4: TPP-17421 (antibody, human IgG1, kappa, V domains shown)
VH: EVQLVQSGAEVKKPGASVKVSCKASGYKFSSYWIEWVKQAPGQGLEWIGEILPGSDWTNYNEKFKDRATFTSDTSINTAYMELSRLRSDDTAVYYCARDRGNYRAWFQYWGQGTLVTVSS
VL: DIQMTQSPSSLSASVGDRVTITCRASQSISSYLNWYQQKPGGAPKFLIYYASSLQSGVPSRFSGSGSGTDYTLTISSLQPEDFATYYCQQGLELPWTFGGGTKVEIKR
notes: also called 438H-M306-C11-hIgG1Kappa

The remaining lines, values behind:

B2: TPP-12942 (antibody, human IgG1, kappa, V domains shown)
VH: B4 VH with W57T, Q108G
VL: B4 VL with S28D, S31N, P44V, A51T, S53R, Q55H, Y87F, L92E, E93A
notes: Prior art humanized IgG1 kappa antibody, used as comparator; also called huM25; huM25-hIgG1Kappa
- EC50 [2]: 0.2 µg/mL
- Median Fluorescence AF647 [3]: 524000
- Median Fluorescence AF647 [4]: 726000
- EC50 [5]: 1.4 µg/mL

B3: TPP-17078 (antibody, human IgG1, kappa, V domains shown)
VH: B4 VH with W57T, Q108G
VL: B4 VL with L92F, E93S
notes: also called 438H-M308-H05-hIgGkappa
- Median Fluorescence AF647 [6]: 2540
- Median Fluorescence AF647 [7]: 3190
- Median Fluorescence AF647 [3]: 527000
- Median Fluorescence AF647 [8]: 3680
- Median Fluorescence AF647 [9]: 14600
- Median Fluorescence AF647 [10]: 1780
- EC50 [11]: 0.15 µg/mL
- Median Fluorescence AF647 [12]: 633
- Median Fluorescence AF647 [4]: 707000
- Median Fluorescence AF647 [13]: 7970
- Median Fluorescence AF647 [14]: 5480
